Data taken from the supplement of paper PMC10065799, “High-throughput profiling of sequence recognition by tyrosine kinases and SH2 domains using bacterial peptide display” (eLife, 2023).

What was measured:
Hck = Hck (UniProt P08631); experiment: phosphorylation enrichment, bacterial display (enrichment ratio); higher = better substrate or ligand; peptides without Tyr show the background
AncSZ = experiment: as above
c-Abl (mouse) = experiment: as above
FGFR3 = FGFR3 (UniProt P22607); experiment: as above
Fer (mouse) = experiment: as above
Fyn = Fyn (UniProt P06241); experiment: as above
Chain of Fyn (P06241 whole entry, looked up): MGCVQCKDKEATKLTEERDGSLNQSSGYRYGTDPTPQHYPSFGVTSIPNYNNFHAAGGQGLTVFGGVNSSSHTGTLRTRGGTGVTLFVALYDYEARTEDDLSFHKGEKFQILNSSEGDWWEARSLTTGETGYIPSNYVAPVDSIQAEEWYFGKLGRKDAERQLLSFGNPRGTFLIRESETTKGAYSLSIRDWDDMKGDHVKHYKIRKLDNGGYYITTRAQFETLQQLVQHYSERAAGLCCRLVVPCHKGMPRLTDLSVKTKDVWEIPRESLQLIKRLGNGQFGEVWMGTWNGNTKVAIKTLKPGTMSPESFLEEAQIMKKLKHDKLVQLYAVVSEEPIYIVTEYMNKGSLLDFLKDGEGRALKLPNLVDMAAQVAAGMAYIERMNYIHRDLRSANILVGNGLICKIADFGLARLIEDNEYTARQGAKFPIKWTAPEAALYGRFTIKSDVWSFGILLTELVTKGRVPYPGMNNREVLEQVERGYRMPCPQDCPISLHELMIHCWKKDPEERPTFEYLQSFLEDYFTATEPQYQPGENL

Jak2 = Jak2 (UniProt O60674); experiment: as above
Chain of Jak2 (O60674 whole entry, looked up): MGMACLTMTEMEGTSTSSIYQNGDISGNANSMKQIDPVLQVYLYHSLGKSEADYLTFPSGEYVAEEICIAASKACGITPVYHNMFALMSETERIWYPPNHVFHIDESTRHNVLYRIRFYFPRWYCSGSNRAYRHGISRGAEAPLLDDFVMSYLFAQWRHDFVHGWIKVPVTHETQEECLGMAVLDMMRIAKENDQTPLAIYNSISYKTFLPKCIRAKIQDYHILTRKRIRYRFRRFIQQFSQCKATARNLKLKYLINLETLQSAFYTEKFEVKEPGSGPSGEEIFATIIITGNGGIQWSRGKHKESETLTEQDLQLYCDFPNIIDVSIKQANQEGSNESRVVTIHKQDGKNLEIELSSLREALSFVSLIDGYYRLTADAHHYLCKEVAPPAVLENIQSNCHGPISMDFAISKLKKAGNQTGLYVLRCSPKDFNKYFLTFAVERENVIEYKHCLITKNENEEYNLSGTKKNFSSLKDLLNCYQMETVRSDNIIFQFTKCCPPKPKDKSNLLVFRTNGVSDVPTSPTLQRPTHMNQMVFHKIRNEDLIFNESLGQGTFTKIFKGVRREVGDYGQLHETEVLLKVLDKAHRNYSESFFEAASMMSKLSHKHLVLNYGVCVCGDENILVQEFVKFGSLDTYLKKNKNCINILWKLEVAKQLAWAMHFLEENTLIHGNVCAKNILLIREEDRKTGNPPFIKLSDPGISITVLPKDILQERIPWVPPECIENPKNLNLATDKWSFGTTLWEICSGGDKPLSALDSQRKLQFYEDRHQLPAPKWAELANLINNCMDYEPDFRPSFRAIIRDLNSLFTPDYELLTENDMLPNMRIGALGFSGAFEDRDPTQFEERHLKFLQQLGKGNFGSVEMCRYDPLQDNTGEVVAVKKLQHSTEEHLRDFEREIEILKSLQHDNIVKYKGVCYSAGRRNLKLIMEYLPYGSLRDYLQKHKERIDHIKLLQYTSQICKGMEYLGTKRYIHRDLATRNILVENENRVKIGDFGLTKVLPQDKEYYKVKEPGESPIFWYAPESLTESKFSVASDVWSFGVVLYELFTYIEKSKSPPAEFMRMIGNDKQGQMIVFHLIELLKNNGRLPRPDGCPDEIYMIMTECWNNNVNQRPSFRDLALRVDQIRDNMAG

MERTK = MERTK (UniProt Q12866); experiment: as above
FGFR1 = FGFR1 (UniProt P11362); experiment: as above
Chain of FGFR1 (P11362 whole entry, looked up): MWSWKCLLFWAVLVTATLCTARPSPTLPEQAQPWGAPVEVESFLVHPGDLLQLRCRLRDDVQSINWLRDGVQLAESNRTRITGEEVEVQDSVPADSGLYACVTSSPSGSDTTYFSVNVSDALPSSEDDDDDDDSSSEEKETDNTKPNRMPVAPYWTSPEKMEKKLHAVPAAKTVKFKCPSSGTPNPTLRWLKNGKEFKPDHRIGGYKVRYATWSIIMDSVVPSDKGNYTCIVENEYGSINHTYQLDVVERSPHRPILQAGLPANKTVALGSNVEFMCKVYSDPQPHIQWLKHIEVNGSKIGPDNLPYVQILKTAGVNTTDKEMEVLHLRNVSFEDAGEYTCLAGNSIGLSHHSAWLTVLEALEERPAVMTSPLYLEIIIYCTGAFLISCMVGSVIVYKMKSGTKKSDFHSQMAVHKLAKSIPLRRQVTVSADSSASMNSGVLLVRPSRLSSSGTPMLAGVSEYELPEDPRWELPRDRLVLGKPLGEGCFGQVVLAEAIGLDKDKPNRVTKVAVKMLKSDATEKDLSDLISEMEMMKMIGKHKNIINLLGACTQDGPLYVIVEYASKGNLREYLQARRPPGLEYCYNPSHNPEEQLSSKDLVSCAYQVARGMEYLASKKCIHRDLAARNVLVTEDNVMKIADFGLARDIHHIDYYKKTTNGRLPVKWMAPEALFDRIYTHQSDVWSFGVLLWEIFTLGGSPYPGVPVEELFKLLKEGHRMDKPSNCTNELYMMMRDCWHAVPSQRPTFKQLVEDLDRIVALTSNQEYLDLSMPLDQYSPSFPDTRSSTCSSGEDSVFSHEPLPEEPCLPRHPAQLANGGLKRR

EPHB1 = EPHB1 (UniProt P54762); experiment: as above
Chain of EPHB1 (P54762 whole entry, looked up): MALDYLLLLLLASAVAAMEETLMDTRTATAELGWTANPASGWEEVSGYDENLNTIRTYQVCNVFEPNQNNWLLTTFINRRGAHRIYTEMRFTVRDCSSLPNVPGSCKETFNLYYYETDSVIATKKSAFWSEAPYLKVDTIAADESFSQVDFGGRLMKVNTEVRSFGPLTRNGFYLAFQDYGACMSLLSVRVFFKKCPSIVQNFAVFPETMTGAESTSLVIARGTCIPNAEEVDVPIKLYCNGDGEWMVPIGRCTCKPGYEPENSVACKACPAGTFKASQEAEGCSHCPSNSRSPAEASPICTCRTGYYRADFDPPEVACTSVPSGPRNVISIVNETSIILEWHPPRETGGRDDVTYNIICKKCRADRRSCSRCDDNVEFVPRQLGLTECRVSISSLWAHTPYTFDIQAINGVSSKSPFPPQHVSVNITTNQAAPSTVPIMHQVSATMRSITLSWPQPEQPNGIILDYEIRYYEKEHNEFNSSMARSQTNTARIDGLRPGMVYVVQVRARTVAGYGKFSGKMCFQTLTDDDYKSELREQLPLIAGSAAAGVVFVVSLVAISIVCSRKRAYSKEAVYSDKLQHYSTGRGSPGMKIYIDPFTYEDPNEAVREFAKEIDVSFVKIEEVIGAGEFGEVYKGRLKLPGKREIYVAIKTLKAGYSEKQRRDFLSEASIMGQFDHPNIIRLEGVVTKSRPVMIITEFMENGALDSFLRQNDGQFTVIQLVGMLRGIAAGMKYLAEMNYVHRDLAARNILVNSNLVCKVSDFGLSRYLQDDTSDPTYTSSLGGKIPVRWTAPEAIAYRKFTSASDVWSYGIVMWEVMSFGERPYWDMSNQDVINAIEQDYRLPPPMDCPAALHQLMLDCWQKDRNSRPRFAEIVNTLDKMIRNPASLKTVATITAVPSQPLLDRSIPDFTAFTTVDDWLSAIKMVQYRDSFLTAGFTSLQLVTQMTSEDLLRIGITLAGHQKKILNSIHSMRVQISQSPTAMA

c-Src = experiment: as above
EPHB2 = EPHB2 (UniProt P29323); experiment: as above
Fes = Fes (UniProt P07332); experiment: as above
Chain of Fes (P07332 whole entry, looked up): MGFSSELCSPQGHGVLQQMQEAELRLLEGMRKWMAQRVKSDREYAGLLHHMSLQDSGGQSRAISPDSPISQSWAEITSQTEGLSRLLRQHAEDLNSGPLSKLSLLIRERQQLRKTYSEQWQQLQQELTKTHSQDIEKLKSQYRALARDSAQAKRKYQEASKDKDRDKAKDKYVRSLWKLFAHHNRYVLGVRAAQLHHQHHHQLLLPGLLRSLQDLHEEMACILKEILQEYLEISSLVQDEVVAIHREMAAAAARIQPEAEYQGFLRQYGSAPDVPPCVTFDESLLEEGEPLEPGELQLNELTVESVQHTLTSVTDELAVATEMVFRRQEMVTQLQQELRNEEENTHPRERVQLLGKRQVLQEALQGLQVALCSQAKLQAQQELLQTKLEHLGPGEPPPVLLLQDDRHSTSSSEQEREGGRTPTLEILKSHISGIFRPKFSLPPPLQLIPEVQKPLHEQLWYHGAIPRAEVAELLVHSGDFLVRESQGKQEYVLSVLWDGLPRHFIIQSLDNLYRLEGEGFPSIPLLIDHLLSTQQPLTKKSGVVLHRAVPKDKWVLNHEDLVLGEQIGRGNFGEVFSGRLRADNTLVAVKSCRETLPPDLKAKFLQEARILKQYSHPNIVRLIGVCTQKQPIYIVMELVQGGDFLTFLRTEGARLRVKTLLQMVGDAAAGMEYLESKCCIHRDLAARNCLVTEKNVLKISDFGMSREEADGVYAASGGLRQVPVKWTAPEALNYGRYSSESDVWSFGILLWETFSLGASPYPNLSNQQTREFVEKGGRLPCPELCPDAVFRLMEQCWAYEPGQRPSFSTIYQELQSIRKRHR

SHP2-C SH2 = experiment: SH2 binding enrichment of the phosphorylated peptide, bacterial display (enrichment ratio); higher = better substrate or ligand; peptides without Tyr show the background
Grb2 SH2 = Grb2 SH2 (UniProt P62993); experiment: as above
Chain of Grb2 SH2 (P62993 whole entry, looked up): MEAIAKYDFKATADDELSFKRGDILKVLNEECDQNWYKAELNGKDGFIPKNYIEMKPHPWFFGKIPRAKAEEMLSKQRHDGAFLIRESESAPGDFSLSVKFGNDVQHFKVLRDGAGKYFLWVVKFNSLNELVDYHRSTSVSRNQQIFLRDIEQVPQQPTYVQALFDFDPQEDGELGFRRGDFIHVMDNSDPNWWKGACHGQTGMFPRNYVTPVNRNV

c-Src SH2 = experiment: as above
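Throughout, for SH2 binding enrichment of the phosphorylated peptide, bacterial display: peptide library displayed on the E. coli surface as eCPX fusions, selected cells deep-sequenced, score is each peptide's frequency after selection divided by its frequency in the input.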
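Throughout, for phosphorylation enrichment, bacterial display: 11-residue human phosphosite peptides and single-mutation variants displayed on the E. coli surface, counted by deep sequencing, each peptide's frequency after selection divided by its frequency in the unselected input library; frequency after pTyr selection over input frequency; kinase dosed for 20-30% of maximal phosphorylation in three min.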

Chain of Hck (P08631 whole entry, looked up): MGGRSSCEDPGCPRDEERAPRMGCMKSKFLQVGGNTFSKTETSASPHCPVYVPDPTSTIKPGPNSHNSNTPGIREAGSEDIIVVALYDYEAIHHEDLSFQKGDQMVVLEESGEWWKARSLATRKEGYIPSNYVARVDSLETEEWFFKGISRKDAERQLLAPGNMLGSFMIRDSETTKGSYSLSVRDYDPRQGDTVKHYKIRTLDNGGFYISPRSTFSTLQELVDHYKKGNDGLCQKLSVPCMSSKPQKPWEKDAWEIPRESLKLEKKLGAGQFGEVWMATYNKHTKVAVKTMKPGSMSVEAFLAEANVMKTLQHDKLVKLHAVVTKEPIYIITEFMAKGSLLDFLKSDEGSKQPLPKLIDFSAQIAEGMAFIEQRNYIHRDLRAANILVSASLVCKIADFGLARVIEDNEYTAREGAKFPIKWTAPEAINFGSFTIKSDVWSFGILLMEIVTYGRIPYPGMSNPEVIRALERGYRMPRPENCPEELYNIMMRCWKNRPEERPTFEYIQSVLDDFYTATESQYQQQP

For VSTKVYKRFPS [BEST1_Y148_A146K], the phosphorylation enrichment (Hck) was 0.352, the phosphorylation enrichment (AncSZ) was 0.445 and the phosphorylation enrichment (c-Abl (mouse)) was 0.505. It also gave a phosphorylation enrichment (FGFR3) of 0.305, a phosphorylation enrichment (Fer (mouse)) of 0.422 and a phosphorylation enrichment (Fyn) of 0.366. It also gave a phosphorylation enrichment (Jak2) of 0.47, a phosphorylation enrichment (MERTK) of 0.365 and a phosphorylation enrichment (FGFR1) of 0.384. For the same sequence, the phosphorylation enrichment (EPHB1) was 0.344, the phosphorylation enrichment (c-Src) was 0.425 and the phosphorylation enrichment (EPHB2) was 0.348. For the same sequence, the phosphorylation enrichment (Fes) was 0.605, the SH2 binding enrichment (SHP2-C SH2) was 0.848 and the SH2 binding enrichment (Grb2 SH2) was 1.1. For the same sequence, the SH2 binding enrichment (c-Src SH2) was 0.656.

FCRITYDIFPF [INTS13_Y67_M66T_YF] gave a phosphorylation enrichment (Hck) of 2.62, a phosphorylation enrichment (AncSZ) of 1.66 and a phosphorylation enrichment (c-Abl (mouse)) of 1.12. For the same sequence, the phosphorylation enrichment (FGFR3) was 1.05, the phosphorylation enrichment (Fer (mouse)) was 0.594 and the phosphorylation enrichment (Fyn) was 1.31. It also gave a phosphorylation enrichment (Jak2) of 1.29, a phosphorylation enrichment (MERTK) of 2.2 and a phosphorylation enrichment (FGFR1) of 0.514. It also gave a phosphorylation enrichment (EPHB1) of 2.38, a phosphorylation enrichment (c-Src) of 2.36 and a phosphorylation enrichment (EPHB2) of 3.05. It also gave a phosphorylation enrichment (Fes) of 1.6, an SH2 binding enrichment (SHP2-C SH2) of 0.853 and an SH2 binding enrichment (Grb2 SH2) of 1.03. The SH2 binding enrichment (c-Src SH2) was 0.485.

GTYVIYVRFSG [FLNB_Y1687_G1691S] was tested, and the phosphorylation enrichment (Hck) was 0.514, the phosphorylation enrichment (AncSZ) was 1.26 and the phosphorylation enrichment (c-Abl (mouse)) was 0.941. For the same sequence, the phosphorylation enrichment (FGFR3) was 0.828, the phosphorylation enrichment (Fer (mouse)) was 0.639 and the phosphorylation enrichment (Fyn) was 0.509. It also gave a phosphorylation enrichment (Jak2) of 1.31, a phosphorylation enrichment (MERTK) of 0.455 and a phosphorylation enrichment (FGFR1) of 0.447. The phosphorylation enrichment (EPHB1) was 0.696, the phosphorylation enrichment (c-Src) was 0.532 and the phosphorylation enrichment (EPHB2) was 0.543. For the same sequence, the phosphorylation enrichment (Fes) was 1.3, the SH2 binding enrichment (SHP2-C SH2) was 1.44 and the SH2 binding enrichment (Grb2 SH2) was 1.05. For the same sequence, the SH2 binding enrichment (c-Src SH2) was 0.587.

Sequence GGGCGYNRSSG [FUS_Y232_G230C] has a phosphorylation enrichment (Hck) of 0.42, a phosphorylation enrichment (AncSZ) of 0.663 and a phosphorylation enrichment (c-Abl (mouse)) of 0.815. The phosphorylation enrichment (FGFR3) was 0.465, the phosphorylation enrichment (Fer (mouse)) was 0.434 and the phosphorylation enrichment (Fyn) was 0.422. The phosphorylation enrichment (Jak2) was 0.701, the phosphorylation enrichment (MERTK) was 0.412 and the phosphorylation enrichment (FGFR1) was 0.448. It also gave a phosphorylation enrichment (EPHB1) of 0.392, a phosphorylation enrichment (c-Src) of 0.435 and a phosphorylation enrichment (EPHB2) of 0.426. It also gave a phosphorylation enrichment (Fes) of 0.717, an SH2 binding enrichment (SHP2-C SH2) of 0.632 and an SH2 binding enrichment (Grb2 SH2) of 0.802. For the same sequence, the SH2 binding enrichment (c-Src SH2) was 0.531.

VFDMLYQLANL [USP24_Y1087] showed a phosphorylation enrichment (Hck) of 3.29, a phosphorylation enrichment (AncSZ) of 1.52 and a phosphorylation enrichment (c-Abl (mouse)) of 0.945. It also gave a phosphorylation enrichment (FGFR3) of 0.82, a phosphorylation enrichment (Fer (mouse)) of 14.1 and a phosphorylation enrichment (Fyn) of 3. It also gave a phosphorylation enrichment (Jak2) of 0.874, a phosphorylation enrichment (MERTK) of 2.5 and a phosphorylation enrichment (FGFR1) of 0.754. For the same sequence, the phosphorylation enrichment (EPHB1) was 1.32, the phosphorylation enrichment (c-Src) was 5.01 and the phosphorylation enrichment (EPHB2) was 1.34. It also gave a phosphorylation enrichment (Fes) of 1.08, an SH2 binding enrichment (SHP2-C SH2) of 1.84 and an SH2 binding enrichment (Grb2 SH2) of 1.53. It also gave an SH2 binding enrichment (c-Src SH2) of 1.11.

HGQVNYEEFVQ [CALM2_Y139_D134H] showed a phosphorylation enrichment (Hck) of 1.37, a phosphorylation enrichment (AncSZ) of 1.89 and a phosphorylation enrichment (c-Abl (mouse)) of 0.911. It also gave a phosphorylation enrichment (FGFR3) of 1.02, a phosphorylation enrichment (Fer (mouse)) of 1.26 and a phosphorylation enrichment (Fyn) of 1.28. The phosphorylation enrichment (Jak2) was 1.24, the phosphorylation enrichment (MERTK) was 0.92 and the phosphorylation enrichment (FGFR1) was 0.795. The phosphorylation enrichment (EPHB1) was 6.37, the phosphorylation enrichment (c-Src) was 0.803 and the phosphorylation enrichment (EPHB2) was 5.8. It also gave a phosphorylation enrichment (Fes) of 1.92, an SH2 binding enrichment (SHP2-C SH2) of 0.651 and an SH2 binding enrichment (Grb2 SH2) of 0.694. It also gave an SH2 binding enrichment (c-Src SH2) of 0.828.

In the case of QSSEGYGLGDR [KIAA1210_Y564], the phosphorylation enrichment (Hck) is reported as 0.989, the phosphorylation enrichment (AncSZ) is reported as 1.03 and the phosphorylation enrichment (c-Abl (mouse)) is reported as 1.27. For the same sequence, the phosphorylation enrichment (FGFR3) was 0.677, the phosphorylation enrichment (Fer (mouse)) was 0.871 and the phosphorylation enrichment (Fyn) was 0.842. The phosphorylation enrichment (Jak2) was 1.14, the phosphorylation enrichment (MERTK) was 0.847 and the phosphorylation enrichment (FGFR1) was 0.538. The phosphorylation enrichment (EPHB1) was 0.731, the phosphorylation enrichment (c-Src) was 1 and the phosphorylation enrichment (EPHB2) was 0.754. For the same sequence, the phosphorylation enrichment (Fes) was 1.06, the SH2 binding enrichment (SHP2-C SH2) was 0.861 and the SH2 binding enrichment (Grb2 SH2) was 0.695. It also gave an SH2 binding enrichment (c-Src SH2) of 0.419.

Work on FGMQLYQNFMH [GRB14_Y347_YF] yielded a phosphorylation enrichment (Hck) of 3.03, a phosphorylation enrichment (AncSZ) of 1.06 and a phosphorylation enrichment (c-Abl (mouse)) of 0.777. For the same sequence, the phosphorylation enrichment (FGFR3) was 0.772, the phosphorylation enrichment (Fer (mouse)) was 5.17 and the phosphorylation enrichment (Fyn) was 2.84. For the same sequence, the phosphorylation enrichment (Jak2) was 0.971, the phosphorylation enrichment (MERTK) was 2.89 and the phosphorylation enrichment (FGFR1) was 0.544. For the same sequence, the phosphorylation enrichment (EPHB1) was 3.53, the phosphorylation enrichment (c-Src) was 3.67 and the phosphorylation enrichment (EPHB2) was 2.41. The phosphorylation enrichment (Fes) was 1.04, the SH2 binding enrichment (SHP2-C SH2) was 1.34 and the SH2 binding enrichment (Grb2 SH2) was 2.83. For the same sequence, the SH2 binding enrichment (c-Src SH2) was 1.22.

KAEELYIGVTV [EFHC2_Y509] was tested, and the phosphorylation enrichment (Hck) was 2.75, the phosphorylation enrichment (AncSZ) was 2.15 and the phosphorylation enrichment (c-Abl (mouse)) was 0.988. It also gave a phosphorylation enrichment (FGFR3) of 2.33, a phosphorylation enrichment (Fer (mouse)) of 5.31 and a phosphorylation enrichment (Fyn) of 2.06. The phosphorylation enrichment (Jak2) was 0.966, the phosphorylation enrichment (MERTK) was 1.42 and the phosphorylation enrichment (FGFR1) was 2.35. For the same sequence, the phosphorylation enrichment (EPHB1) was 0.921, the phosphorylation enrichment (c-Src) was 2.2 and the phosphorylation enrichment (EPHB2) was 0.772. It also gave a phosphorylation enrichment (Fes) of 1.35, an SH2 binding enrichment (SHP2-C SH2) of 0.756 and an SH2 binding enrichment (Grb2 SH2) of 0.648. The SH2 binding enrichment (c-Src SH2) was 0.411.
